Reference: patent publication US20220056104A1 (Janssen / Centocor, published 2022)

T1: DcR3 (UniProt O95407 30-300, limits assumed)
T1 construct: the construct is not described; also called decoy receptor DcR3; TNFRSF6B
T1 sequence (looked up): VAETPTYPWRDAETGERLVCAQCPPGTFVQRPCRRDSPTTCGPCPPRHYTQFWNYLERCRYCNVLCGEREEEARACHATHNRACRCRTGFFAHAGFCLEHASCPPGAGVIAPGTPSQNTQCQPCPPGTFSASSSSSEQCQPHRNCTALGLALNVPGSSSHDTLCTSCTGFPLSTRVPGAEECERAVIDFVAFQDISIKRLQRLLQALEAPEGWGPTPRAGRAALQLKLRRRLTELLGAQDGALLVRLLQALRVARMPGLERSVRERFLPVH

T2: Recombinant DR3-Fc (R&D Systems, cat. #943-D3) (UniProt Q93038 25-199, limits assumed)
T2 construct: dimeric MW~92 kDa; also called DR3 receptor; Fc-DR3; not shown: Fc part of the bought fusion
T2 sequence (looked up): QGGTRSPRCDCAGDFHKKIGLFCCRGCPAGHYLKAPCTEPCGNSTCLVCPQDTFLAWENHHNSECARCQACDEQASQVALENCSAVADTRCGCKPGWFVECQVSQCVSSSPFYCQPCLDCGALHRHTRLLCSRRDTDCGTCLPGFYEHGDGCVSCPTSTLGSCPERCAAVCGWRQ


Key:
DcR3 = target: T1, DcR3; assay: ELISA, DcR3
[1] = target: T2, Recombinant DR3-Fc (R&D Systems, cat. …); assay: ELISA, DR3-Fc immobilized
Description: All ELISA-based measurements were collected in triplicate, and error values report the standard error between measurements. Recombinant DR3-Fc (R&D Systems, cat. #943-D3), dimeric MW˜92 kDa, was non-specifically immobilized onto plates (Nunc maxisorp, cat. #436110) in 100 μL DR3-Fc, diluted to 10 μg/mL onto a 96-well White Maxisorp plate (Nunc, cat #436110) (O/N, 4° C.). Plates were block for 1 hour at room temperature with 250 μl/well of casein buffer and blocking buffer was removed. 50 μL of TL1A variants were diluted in StartingBlock PBS (Thermo Fisher Scientific), at 25 μg/mL, diluting 3× over each well, according to the plate map description for 20160623) per well on a 96-well White Maxisorp plate (Nunc, cat #: 436110) (overnight at 4° C.).
Plates were washed three times with TBST. 100 μl/well polyclonal rabbit anti-human TL1A-biotin antibody (diluted 1:1000 in Starting Block PBS) was added and plates were incubated for 1 hour at room temperature with shaking at 150 rpm. TL1A-biotin antibody was removed and 100 μl/well streptavidin-HRP conjugate (diluted 1:10,000 in Starting Block PBS) was added to plates. Plates were incubated for 1 hour at room temperature with shaking at 150 rpm. Plates were washed three times with TBST. 100 μl/well POD Chemiluminescence substrate (Roche, cat #: 11582950001) was added immediately prior to reading plate luminescence using a Molecular Devices M5 plate reader with a delay setting of 100 ms.
Variants of TL1A were generated and tested for binding to DR3 and DcR3 by ELISA as described.

EC50 (DcR3) [nM]	Rel EC50 (DcR3)	EC50 [1] [nM]	Rel EC50 [1]	Binder
50.9	11.1 ratio (head: nM)	34.4	1.3 ratio (head: nM)	TL1W81 (His-TEV-TL1A K111S) (ligand, also called TL1W81 (K111S)) HHHHHHENLYFQGLKGQEFAPSHQQVYAPLRADGDKPRAHLTVVRQTPTQHFSNQFPALHWEHELGLAFTKNRMNYTNKFLLIPESGDYFIYSQVTFRGMTSECSEIRQAGRPNKPDSITVVITKVTDSYPEPTQLLMGTKSVCEVGSNWFQPIYLGAMFSLQEGDKLMVNVSDISLVDYTKEDKTFFGAFLL
11	2.4 ratio (head: nM)	188	7.2 ratio (head: nM)	TL1W90 (His-TEV-TL1A R156K) (ligand, also called TL1W90 (R156K)) HHHHHHENLYFQGLKGQEFAPSHQQVYAPLRADGDKPRAHLTVVRQTPTQHFKNQFPALHWEHELGLAFTKNRMNYTNKFLLIPESGDYFIYSQVTFKGMTSECSEIRQAGRPNKPDSITVVITKVTDSYPEPTQLLMGTKSVCEVGSNWFQPIYLGAMFSLQEGDKLMVNVSDISLVDYTKEDKTFFGAFLL
27.8	6 ratio (head: nM)	2050	78.4 ratio (head: nM)	TL1W98 (His-TEV-TL1A K173R) (ligand, also called TL1W98 (K173R)) HHHHHHENLYFQGLKGQEFAPSHQQVYAPLRADGDKPRAHLTVVRQTPTQHFKNQFPALHWEHELGLAFTKNRMNYTNKFLLIPESGDYFIYSQVTFRGMTSECSEIRQAGRPNRPDSITVVITKVTDSYPEPTQLLMGTKSVCEVGSNWFQPIYLGAMFSLQEGDKLMVNVSDISLVDYTKEDKTFFGAFLL
57.1	12.4 ratio (head: nM)	296	11.3 ratio (head: nM)	TL1W85 (His-TEV-TL1A G124S) (ligand, also called TL1W85 (G124S)) HHHHHHENLYFQGLKGQEFAPSHQQVYAPLRADGDKPRAHLTVVRQTPTQHFKNQFPALHWEHELSLAFTKNRMNYTNKFLLIPESGDYFIYSQVTFRGMTSECSEIRQAGRPNKPDSITVVITKVTDSYPEPTQLLMGTKSVCEVGSNWFQPIYLGAMFSLQEGDKLMVNVSDISLVDYTKEDKTFFGAFLL
11.3	2.4 ratio (head: nM)	180	6.9 ratio (head: nM)	TL1W105 (His-TEV-TL1A T185N) (ligand, also called TL1W105 (T185N)) HHHHHHENLYFQGLKGQEFAPSHQQVYAPLRADGDKPRAHLTVVRQTPTQHFKNQFPALHWEHELGLAFTKNRMNYTNKFLLIPESGDYFIYSQVTFRGMTSECSEIRQAGRPNKPDSITVVITKVNDSYPEPTQLLMGTKSVCEVGSNWFQPIYLGAMFSLQEGDKLMVNVSDISLVDYTKEDKTFFGAFLL
11.5	2.5 ratio (head: nM)	34.8	1.3 ratio (head: nM)	TL1W99 (His-TEV-TL1A S176A) (ligand, also called TL1W99 (S176A)) HHHHHHENLYFQGLKGQEFAPSHQQVYAPLRADGDKPRAHLTVVRQTPTQHFKNQFPALHWEHELGLAFTKNRMNYTNKFLLIPESGDYFIYSQVTFRGMTSECSEIRQAGRPNKPDAITVVITKVTDSYPEPTQLLMGTKSVCEVGSNWFQPIYLGAMFSLQEGDKLMVNVSDISLVDYTKEDKTFFGAFLL
18.7	4.1 ratio (head: nM)	58.7	2.2 ratio (head: nM)	TL1W94 (His-TEV-TL1A M158E) (ligand, also called TL1W94 (M158E)) HHHHHHENLYFQGLKGQEFAPSHQQVYAPLRADGDKPRAHLTVVRQTPTQHFKNQFPALHWEHELGLAFTKNRMNYTNKFLLIPESGDYFIYSQVTFRGETSECSEIRQAGRPNKPDSITVVITKVTDSYPEPTQLLMGTKSVCEVGSNWFQPIYLGAMFSLQEGDKLMVNVSDISLVDYTKEDKTFFGAFLL
55.7	12.1 ratio (head: nM)	182	7 ratio (head: nM)	TL1W84 (His-TEV-TL1A E120H) (ligand, also called TL1W84 (E120H)) HHHHHHENLYFQGLKGQEFAPSHQQVYAPLRADGDKPRAHLTVVRQTPTQHFKNQFPALHWHHELGLAFTKNRMNYTNKFLLIPESGDYFIYSQVTFRGMTSECSEIRQAGRPNKPDSITVVITKVTDSYPEPTQLLMGTKSVCEVGSNWFQPIYLGAMFSLQEGDKLMVNVSDISLVDYTKEDKTFFGAFLL
15	3.3 ratio (head: nM)	324	12.4 ratio (head: nM)	TL1W100 (His-TEV-TL1A S176L) (ligand, also called TL1W100 (S176L)) HHHHHHENLYFQGLKGQEFAPSHQQVYAPLRADGDKPRAHLTVVRQTPTQHFKNQFPALHWEHELGLAFTKNRMNYTNKFLLIPESGDYFIYSQVTFRGMTSECSEIRQAGRPNKPDLITVVITKVTDSYPEPTQLLMGTKSVCEVGSNWFQPIYLGAMFSLQEGDKLMVNVSDISLVDYTKEDKTFFGAFLL
55.9	12.1 ratio (head: nM)	22.5	0.9 ratio (head: nM)	TL1W93 (His-TEV-TL1A M158K) (ligand, also called TL1W93 (M158K)) HHHHHHENLYFQGLKGQEFAPSHQQVYAPLRADGDKPRAHLTVVRQTPTQHFKNQFPALHWEHELGLAFTKNRMNYTNKFLLIPESGDYFIYSQVTFRGKTSECSEIRQAGRPNKPDSITVVITKVTDSYPEPTQLLMGTKSVCEVGSNWFQPIYLGAMFSLQEGDKLMVNVSDISLVDYTKEDKTFFGAFLL
6.7	1.5 ratio (head: nM)	131	5 ratio (head: nM)	TL1W97 (His-TEV-TL1A K173S) (ligand, also called TL1W97 (K173S)) HHHHHHENLYFQGLKGQEFAPSHQQVYAPLRADGDKPRAHLTVVRQTPTQHFKNQFPALHWEHELGLAFTKNRMNYTNKFLLIPESGDYFIYSQVTFRGMTSECSEIRQAGRPNSPDSITVVITKVTDSYPEPTQLLMGTKSVCEVGSNWFQPIYLGAMFSLQEGDKLMVNVSDISLVDYTKEDKTFFGAFLL
79.9	17.4 ratio (head: nM)	124	4.7 ratio (head: nM)	TL1W106 (His-TEV-TL1A T185D) (ligand, also called TL1W106 (T185D)) HHHHHHENLYFQGLKGQEFAPSHQQVYAPLRADGDKPRAHLTVVRQTPTQHFKNQFPALHWEHELGLAFTKNRMNYTNKFLLIPESGDYFIYSQVTFRGMTSECSEIRQAGRPNKPDSITVVITKVDDSYPEPTQLLMGTKSVCEVGSNWFQPIYLGAMFSLQEGDKLMVNVSDISLVDYTKEDKTFFGAFLL
10.6	2.3 ratio (head: nM)	25.8	1 ratio (head: nM)	TL1W82 (His-TEV-TL1A K111E) (ligand, also called TL1W82 (K111E)) HHHHHHENLYFQGLKGQEFAPSHQQVYAPLRADGDKPRAHLTVVRQTPTQHFENQFPALHWEHELGLAFTKNRMNYTNKFLLIPESGDYFIYSQVTFRGMTSECSEIRQAGRPNKPDSITVVITKVTDSYPEPTQLLMGTKSVCEVGSNWFQPIYLGAMFSLQEGDKLMVNVSDISLVDYTKEDKTFFGAFLL
16.4	3.6 ratio (head: nM)	87	3.3 ratio (head: nM)	TL1W96 (His-TEV-TL1A R170E) (ligand, also called TL1W96 (R170E)) HHHHHHENLYFQGLKGQEFAPSHQQVYAPLRADGDKPRAHLTVVRQTPTQHFKNQFPALHWEHELGLAFTKNRMNYTNKFLLIPESGDYFIYSQVTFRGMTSECSEIRQAGEPNKPDSITVVITKVTDSYPEPTQLLMGTKSVCEVGSNWFQPIYLGAMFSLQEGDKLMVNVSDISLVDYTKEDKTFFGAFLL
29.2	6.3 ratio (head: nM)	182	6.9 ratio (head: nM)	TL1W102 (His-TEV-TL1A S176K) (ligand, also called TL1W102 (S176K)) HHHHHHENLYFQGLKGQEFAPSHQQVYAPLRADGDKPRAHLTVVRQTPTQHFKNQFPALHWEHELGLAFTKNRMNYTNKFLLIPESGDYFIYSQVTFRGMTSECSEIRQAGRPNKPDKITVVITKVTDSYPEPTQLLMGTKSVCEVGSNWFQPIYLGAMFSLQEGDKLMVNVSDISLVDYTKEDKTFFGAFLL
19.3	4.2 ratio (head: nM)	49.4	1.9 ratio (head: nM)	TL1W104 (His-TEV-TL1A T185L) (ligand, also called TL1W104 (T185L)) HHHHHHENLYFQGLKGQEFAPSHQQVYAPLRADGDKPRAHLTVVRQTPTQHFKNQFPALHWEHELGLAFTKNRMNYTNKFLLIPESGDYFIYSQVTFRGMTSECSEIRQAGRPNKPDSITVVITKVLDSYPEPTQLLMGTKSVCEVGSNWFQPIYLGAMFSLQEGDKLMVNVSDISLVDYTKEDKTFFGAFLL
11.5	2.5 ratio (head: nM)	57.9	2.2 ratio (head: nM)	TL1W103 (His-TEV-TL1A T185A) (ligand, also called TL1W103 (T185A)) HHHHHHENLYFQGLKGQEFAPSHQQVYAPLRADGDKPRAHLTVVRQTPTQHFKNQFPALHWEHELGLAFTKNRMNYTNKFLLIPESGDYFIYSQVTFRGMTSECSEIRQAGRPNKPDSITVVITKVADSYPEPTQLLMGTKSVCEVGSNWFQPIYLGAMFSLQEGDKLMVNVSDISLVDYTKEDKTFFGAFLL
